{"source": "paper PMC3877283", "about": "“Development of Novel Radiogallium-Labeled Bone Imaging Agents Using Oligo-Aspartic Acid Peptides as Carriers” (PLoS ONE, 2013)", "test": "Biodistribution experiments in mice with pretreatment of alendronate (20 mg/kg)", "assay_type": "in vivo, ddY mice", "conditions": "for Radioactivity in Bone (Femur): Bone (complete left femur); for Radioactivity in Stomach: Stomach (footnote b)", "method": "Experiments with animals were conducted in strict accordance with the Guidelines for the Care and Use of Laboratory Animals of Kanazawa University. The animal experimental protocols used were approved by the Committee on Animal Experimentation of Kanazawa University (Permit Number: AP-132633). Biodistribution experiments were performed after an intravenous administration of each diluted tracer solution (37 kBq/100 µL) to 6-week-old male ddY mice (27–32 g, Japan SLC, Inc., Hamamatsu, Japan). To investigate the effect of an excess amount of bisphosphonate on biodistribution, alendronate (20 mg/kg) was intravenously administered to mice 1 minute before the intravenous injection of ^67Ga-DOTA-(Asp)14 or ^67Ga-DOTA-Bn-SCN-HBP. Four to six mice each were sacrificed by decapitation at 10, 60, and 180 minutes post-injection. Tissues of interest were removed and weighed. Complete left femurs were isolated as representative bone samples, radioactivity was determined using an auto well gamma counter, and counts were corrected for background radiation and physical decay during counting.", "key": {"[1]": {"conditions": "10 min after i.v. administration, alendronate 20 mg/kg i.v. 1 minute before, male ddY mice, mean (SD) for five or six animals"}, "[2]": {"conditions": "60 min (1 h) after i.v. administration, alendronate 20 mg/kg i.v. 1 minute before, male ddY mice, mean (SD) for five or six animals"}, "[3]": {"conditions": "180 min (3 h) after i.v. administration, alendronate 20 mg/kg i.v. 1 minute before, male ddY mice, mean (SD) for five or six animals"}}, "note": "Read-outs that look alike come from different tables or passages of the source. Marks after values point to notes of the source that are not given here. Peptide text beside a SMILES is read from it. * marks the point of attachment. DOTA = O=C(O)CN1CCN(CC(=O)O)CCN(CC(=O)*)CCN(CC(=O)O)CC1", "data": [{"smiles": "O=C(O)C[C@H](NC(=O)[C@H](CC(=O)O)NC(=O)[C@H](CC(=O)O)NC(=O)[C@H](CC(=O)O)NC(=O)[C@H](CC(=O)O)NC(=O)[C@H](CC(=O)O)NC(=O)[C@H](CC(=O)O)NC(=O)[C@H](CC(=O)O)NC(=O)[C@H](CC(=O)O)NC(=O)[C@H](CC(=O)O)NC(=O)[C@H](CC(=O)O)NC(=O)[C@H](CC(=O)O)NC(=O)[C@H](CC(=O)O)NC(=O)[C@H](CC(=O)O)NC(=O)CN1CCN(CC(=O)O)CCN(CC(=O)O)CCN(CC(=O)O)CC1)C(=O)O", "note": "[67Ga-DOTA-(Asp)14, metal not drawn] ({DOTA}-DDDDDDDDDDDDDD-OH)", "values": [{"measurement": "F/B ratio (Femur:blood ratio)", "setting": "[1]", "value": "4.50 (0.63) ^**"}, {"measurement": "F/B ratio (Femur:blood ratio)", "setting": "[2]", "value": "52.96 (17.28) ^**"}, {"measurement": "F/B ratio (Femur:blood ratio)", "setting": "[3]", "value": "229.73 (67.08) ^**"}, {"measurement": "Radioactivity in Blood", "setting": "Blood, 60 min (1 h) after i.v. administration, alendronate 20 mg/kg i.v. 1 minute before, male ddY mice, mean (SD) for five or six animals", "value": "0.23 (0.05) ^** % injected dose"}, {"measurement": "Radioactivity in Blood", "setting": "Blood, 180 min (3 h) after i.v. administration, alendronate 20 mg/kg i.v. 1 minute before, male ddY mice, mean (SD) for five or six animals", "value": "0.06 (0.02) ^** % injected dose"}, {"measurement": "Radioactivity in Bone (Femur)", "setting": "[1]", "value": "8.59 (0.55) ^** % injected dose"}, {"measurement": "Radioactivity in Bone (Femur)", "setting": "[2]", "value": "11.81 (1.95) % injected dose"}, {"measurement": "Radioactivity in Bone (Femur)", "setting": "[3]", "value": "12.88 (2.30) % injected dose"}, {"measurement": "Radioactivity in Brain", "setting": "[1]", "value": "0.05 (0.01) % injected dose"}, {"measurement": "Radioactivity in Brain", "setting": "[2]", "value": "0.02 (0.00) ^* % injected dose"}, {"measurement": "Radioactivity in Brain", "setting": "[3]", "value": "0.01 (0.00) % injected dose"}, {"measurement": "Radioactivity in Heart", "setting": "Heart, 60 min (1 h) after i.v. administration, alendronate 20 mg/kg i.v. 1 minute before, male ddY mice, mean (SD) for five or six animals", "value": "0.24 (0.08) ^** % injected dose"}, {"measurement": "Radioactivity in Heart", "setting": "Heart, 180 min (3 h) after i.v. administration, alendronate 20 mg/kg i.v. 1 minute before, male ddY mice, mean (SD) for five or six animals", "value": "0.15 (0.07) ^** % injected dose"}, {"measurement": "Radioactivity in Kidney", "setting": "Kidney, 60 min (1 h) after i.v. administration, alendronate 20 mg/kg i.v. 1 minute before, male ddY mice, mean (SD) for five or six animals", "value": "3.28 (0.82) ^** % injected dose"}, {"measurement": "Radioactivity in Kidney", "setting": "Kidney, 180 min (3 h) after i.v. administration, alendronate 20 mg/kg i.v. 1 minute before, male ddY mice, mean (SD) for five or six animals", "value": "3.34 (0.92) ^** % injected dose"}, {"measurement": "Radioactivity in Large-intestine", "setting": "[1]", "value": "0.40 (0.08) ^* % injected dose"}, {"measurement": "Radioactivity in Large-intestine", "setting": "[2]", "value": "0.08 (0.01) ^** % injected dose"}, {"measurement": "Radioactivity in Large-intestine", "setting": "[3]", "value": "0.33 (0.07) ^** % injected dose"}, {"measurement": "Radioactivity in Liver", "setting": "Liver, 60 min (1 h) after i.v. administration, alendronate 20 mg/kg i.v. 1 minute before, male ddY mice, mean (SD) for five or six animals", "value": "1.39 (0.29) ^** % injected dose"}, {"measurement": "Radioactivity in Liver", "setting": "Liver, 180 min (3 h) after i.v. administration, alendronate 20 mg/kg i.v. 1 minute before, male ddY mice, mean (SD) for five or six animals", "value": "1.27 (0.72) ^** % injected dose"}, {"measurement": "Radioactivity in Lung", "setting": "Lung, 180 min (3 h) after i.v. administration, alendronate 20 mg/kg i.v. 1 minute before, male ddY mice, mean (SD) for five or six animals", "value": "2.49 (1.78) ^* % injected dose"}, {"measurement": "Radioactivity in Muscle", "setting": "Muscle, 60 min (1 h) after i.v. administration, alendronate 20 mg/kg i.v. 1 minute before, male ddY mice, mean (SD) for five or six animals", "value": "0.11 (0.07) % injected dose"}, {"measurement": "Radioactivity in Muscle", "setting": "Muscle, 180 min (3 h) after i.v. administration, alendronate 20 mg/kg i.v. 1 minute before, male ddY mice, mean (SD) for five or six animals", "value": "0.05 (0.02) % injected dose"}, {"measurement": "Radioactivity in Pancreas", "setting": "[1]", "value": "0.72 (0.12) ^** % injected dose"}, {"measurement": "Radioactivity in Pancreas", "setting": "[2]", "value": "0.15 (0.02) ^** % injected dose"}, {"measurement": "Radioactivity in Pancreas", "setting": "[3]", "value": "0.12 (0.07) ^* % injected dose"}, {"measurement": "Radioactivity in Small-intestine", "setting": "[1]", "value": "0.53 (0.09) ^* % injected dose"}, {"measurement": "Radioactivity in Small-intestine", "setting": "[2]", "value": "0.22 (0.05) ^** % injected dose"}, {"measurement": "Radioactivity in Small-intestine", "setting": "[3]", "value": "0.29 (0.12) ^** % injected dose"}, {"measurement": "Radioactivity in Spleen", "setting": "Spleen, 60 min (1 h) after i.v. administration, alendronate 20 mg/kg i.v. 1 minute before, male ddY mice, mean (SD) for five or six animals", "value": "1.03 (0.35) ^** % injected dose"}, {"measurement": "Radioactivity in Spleen", "setting": "Spleen, 180 min (3 h) after i.v. administration, alendronate 20 mg/kg i.v. 1 minute before, male ddY mice, mean (SD) for five or six animals", "value": "0.89 (0.59) ^* % injected dose"}, {"measurement": "Radioactivity in Stomach", "setting": "[1]", "value": "0.36 (0.09) ^* % injected dose"}, {"measurement": "Radioactivity in Stomach", "setting": "[2]", "value": "0.15 (0.12) % injected dose"}, {"measurement": "Radioactivity in Stomach", "setting": "[3]", "value": "0.11 (0.04) ^** % injected dose"}, {"measurement": "effect of alendronate pretreatment on accumulation in bone (in words)", "setting": "alendronate 20 mg/kg i.v. 1 minute before tracer, mice", "value": "comparatively little effect"}, {"measurement": "tissue uptake dose at 10 min", "setting": "male, ddY, mouse, in vivo, iv, total radioactivity, Blood, 10 min after i.v. administration, alendronate 20 mg/kg i.v. 1 minute before, male ddY mice, mean (SD) for five or six animals, read-out: Radioactivity in Blood", "value": 1.94, "unit": "%ID"}, {"measurement": "tissue uptake dose at 10 min", "setting": "male, ddY, mouse, in vivo, iv, total radioactivity, Heart, 10 min after i.v. administration, alendronate 20 mg/kg i.v. 1 minute before, male ddY mice, mean (SD) for five or six animals, read-out: Radioactivity in Heart", "value": 0.88, "unit": "%ID"}, {"measurement": "tissue uptake dose at 10 min", "setting": "male, ddY, mouse, in vivo, iv, total radioactivity, Kidney, 10 min after i.v. administration, alendronate 20 mg/kg i.v. 1 minute before, male ddY mice, mean (SD) for five or six animals, read-out: Radioactivity in Kidney", "value": 16.7, "unit": "%ID"}, {"measurement": "tissue uptake dose at 10 min", "setting": "male, ddY, mouse, in vivo, iv, total radioactivity, Liver, 10 min after i.v. administration, alendronate 20 mg/kg i.v. 1 minute before, male ddY mice, mean (SD) for five or six animals, read-out: Radioactivity in Liver", "value": 2.2, "unit": "%ID"}, {"measurement": "tissue uptake dose at 10 min", "setting": "male, ddY, mouse, in vivo, iv, total radioactivity, Lung, 10 min after i.v. administration, alendronate 20 mg/kg i.v. 1 minute before, male ddY mice, mean (SD) for five or six animals, read-out: Radioactivity in Lung", "value": 5.86, "unit": "%ID"}, {"measurement": "tissue uptake dose at 1 h", "setting": "male, ddY, mouse, in vivo, iv, total radioactivity, Lung, 60 min (1 h) after i.v. administration, alendronate 20 mg/kg i.v. 1 minute before, male ddY mice, mean (SD) for five or six animals", "value": 4.07, "unit": "%ID"}, {"measurement": "tissue uptake dose at 10 min", "setting": "male, ddY, mouse, in vivo, iv, total radioactivity, Muscle, 10 min after i.v. administration, alendronate 20 mg/kg i.v. 1 minute before, male ddY mice, mean (SD) for five or six animals, read-out: Radioactivity in Muscle", "value": 0.53, "unit": "%ID"}, {"measurement": "tissue uptake dose at 10 min", "setting": "male, ddY, mouse, in vivo, iv, total radioactivity, Spleen, 10 min after i.v. administration, alendronate 20 mg/kg i.v. 1 minute before, male ddY mice, mean (SD) for five or six animals, read-out: Radioactivity in Spleen", "value": 1.86, "unit": "%ID"}]}]}
